Patent publication US20260242478A1 (published 2026)
Where no end group is shown, it is not given here.

Assays:
[1] = target: T1, PSMA Fab (biotinylated (site not stated)); assay: phage ELISA; PSMA Fab-coated wells pre-incubated with PSMA antigen as competitor, anti-M13-HRP detection
T1 construct: Biotinylated PSMA Fab captured on neutravidin plates in the phage ELISA; also called Anti-PSMA Fab; 006 PSMA Fab

[2] = target: T1, PSMA Fab; assay: phage ELISA; biotinylated PSMA Fab on neutravidin plate, clonal phage supernatant, anti-M13-HRP detection;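 further: wells were preincubated with blocking buffer containing PSMA antigen or with blocking buffer only, then phage supernatant was added without washing for a brief incubation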
Protocol: (§1) Clonal phage were harvested as crude supernatants and screened via standard ELISAs. […] Prior to the addition of clonal phage. wells were incubated with blocking buffer and PSMA antigen or blocking buffer alone. Without washing or aspirating, clonal phage supernatants were then added to the wells and incubated for a short time. Wells were then washed followed by detection of bound phage using a horse radish conjugated anti-M13 antibody.

[3] = target: T2, PSMA Fab (SEQ ID NOs: 19, 20); assay: phage ELISA; biotinylated PSMA Fab on neutravidin plate, anti-M13 HRP; no PSMA antigen
T2 construct: Biotinylated and captured on neutravidin coated plates in the phage ELISA; also called Anti-PSMA Fab; 006 PSMA Fab
Protocol: as §1

[4] = target: T2, PSMA Fab (SEQ ID NOs: 19, 20); assay: phage ELISA; biotinylated PSMA Fab on neutravidin plate, anti-M13 HRP; competitor PSMA antigen pre-incubated
Protocol: as §1

[5] = target: T3, PSMA Fab (biotinylated (site not stated)); assay: clonal phage ELISA on captured PSMA Fab pre-incubated with PSMA antigen (competitor: PSMA), anti-M13-HRP detection
T3 construct: also called Anti-PSMA Fab; 006 PSMA Fab

[6] = target: T3, PSMA Fab; assay: clonal phage ELISA on biotinylated PSMA Fab captured on neutravidin plates, blocking buffer alone, anti-M13-HRP detection
Protocol: as §1

[7] = target: T4, PSMA Fab (006 PSMA Fab); assay: clonal phage ELISA; biotinylated PSMA Fab on neutravidin plate, blocking buffer alone; anti-M13 HRP detection;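 further: crude clonal phage supernatants added without washing to wells pretreated with blocking buffer with or without PSMA antigen, short incubation, then washed before detecting bound phage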
T4 construct: also called Anti-PSMA Fab; anti-PSMA Fab
Protocol: as §1

[8] = target: T4, PSMA Fab (006 PSMA Fab); assay: clonal phage ELISA; biotinylated PSMA Fab on neutravidin plate, wells pre-incubated with PSMA antigen as competitor; anti-M13 HRP detection;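 further: crude clonal phage supernatants added to antigen-treated wells without a wash, incubated briefly, then bound phage read out via horse radish–conjugated anti-M13 antibody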
Protocol: as §1

Binder	Phage binding ELISA signal, Anti-PSMA Fab with PSMA antigen [1]	Phage binding ELISA signal, Anti-PSMA Fab [2]	phage binding ELISA signal [3]	phage binding ELISA signal [4]	further results
VLKWCTPAWMCTGF [Phage-2557]	0.0805	1.12	–	–	–
EPKWCTPPWMCENF [Phage-2567]	–	–	1.11	0.0576	–
SEIWCIPAWMCQST [Phage-2564]	–	–	1.11	0.0851	–
ESHWCIPAWMCEQF [Phage-2546]	0.0589	1.14	–	–	–
EFKWCTPEWMCAMA (cysteine pairing not given here; also: fused to phage pIII, linker and fusion site not given here, Clonal phage displaying the peptide, tested as crude supernatant; also called peptide-180 library clone; not shown: fused to the pIII filament protein of the bacteriophage) [Phage-2575]	–	–	–	–	phage binding ELISA signal in presence of PSMA [5]: 0.0845; phage binding ELISA signal [6]: 1.09
AIHWCTPPWMCEPQ [Phage-2569]	–	–	1.1	0.0777	–
VDPWCKPAWMCLGM [Phage-2566]	–	–	1.11	0.0597	–
SEHWCIPQWMCQSV (cysteine pairing not given here; also: fused to phage pIII, linker and fusion site not given here) [Phage-2543]	0.114	1.15	–	–	–
WENWCTPTWMCWPN [Phage-2558]	–	–	1.12	0.0834	–
WDKWCTPPWMCQVH [Phage-2559]	–	–	1.12	0.0758	–
VITWCTPPWMCSGW (Row prints V I T W - T - P - - - S - W) [Phage-2525]	–	–	–	–	Phage binding ELISA signal, Anti-PSMA Fab [7]: 1.17; Phage binding ELISA signal, Anti-PSMA Fab in presence of PSMA antigen [8]: 0.0911
VQKWCIPPWMCTHI [Phage-2549]	0.0958	1.14	–	–	–
IAKLCTPAWMCERH [Phage-2562]	–	–	1.11	0.0803	–
TFKWCTPAWMCAGF (cysteine pairing not given here; also: fused to phage pIII, linker and fusion site not given here, Clonal phage displaying the peptide, tested as crude supernatant; also called peptide-180 library clone; not shown: fused to the pIII filament protein of the bacteriophage) [Phage-2574]	–	–	–	–	phage binding ELISA signal in presence of PSMA [5]: 0.0801; phage binding ELISA signal [6]: 1.09
NWKWCIPEWMCAAE (cysteine pairing not given here; also: fused to phage pIII, linker and fusion site not given here) [Phage-2563]	–	–	1.11	0.0635	–
TQKLCIPEWMCEAM [Phage-2555]	0.0698	1.12	–	–	–
LQTWCIPPWMCEGG [Phage-2556]	0.0675	1.12	–	–	–
QEKMCIPAWMCSEY (Clonal phage displaying the peptide, tested as crude supernatant; also called peptide-180 library clone; not shown: fused to the pIII filament protein of the bacteriophage) [Phage-2576]	–	–	–	–	phage binding ELISA signal in presence of PSMA [5]: 0.0615; phage binding ELISA signal [6]: 1.09

Binder	Phage binding ELISA signal, Anti-PSMA Fab with PSMA antigen [1]	Phage binding ELISA signal, Anti-PSMA Fab [2]	phage binding ELISA signal [3]	phage binding ELISA signal [4]	further results
MFKWCTPQWMCETM [Phage-2554]	0.124	1.13	–	–	–
VEKWCIPEWMCWTV [Phage-2565]	–	–	1.11	0.0709	–
AEYWCIPRWMCSQH [Phage-2552]	0.0882	1.14	–	–	–
GVMWCIPQWMCVTA [Phage-2560]	–	–	1.12	0.104	–
LYNWCTPAWMCYGY [Phage-2545]	0.284	1.15	–	–	–
EPKWCTPPWMCQSV [Phage-2551]	0.0734	1.14	–	–	–
VDTWCTPPWMCWGL (cysteine pairing not given here; also: fused to phage pIII, linker and fusion site not given here, also called peptide-180 library clone; not shown: fused to the pIII filament protein of the bacteriophage) [Phage-2573]	–	–	–	–	phage binding ELISA signal in presence of PSMA [5]: 0.0695; phage binding ELISA signal [6]: 1.09
EGKWCIPDWMCAAH (cysteine pairing not given here; also: fused to phage pIII, linker and fusion site not given here) [Phage-2547]	0.0598	1.14	–	–	–
QYNWCVPAWMCEIS [Phage-2572]	–	–	1.1	0.0848	–
FENWCTPKWMCIGV [Phage-2548]	0.102	1.14	–	–	–
GEKACIPAWMCSEN [Phage-2553]	0.0736	1.13	–	–	–
YDVLCKPDWMCNWN [Phage-2568]	–	–	1.11	0.0861	–
YAPWCIPLWMCLDR [Phage-2561]	–	–	1.11	0.161	–
WEKWCTPSWMCSAG (Row prints W E K W - T - S - - - S A G) [Phage-2526]	–	–	–	–	Phage binding ELISA signal, Anti-PSMA Fab [7]: 1.17; Phage binding ELISA signal, Anti-PSMA Fab in presence of PSMA antigen [8]: 0.0743
IAKWCIPSWMCAGI (cysteine pairing not given here; also: fused to phage pIII, linker and fusion site not given here) [Phage-2571]	–	–	1.1	0.139	–
EGPWCIPEWMCQNS [Phage-2570]	–	–	1.1	0.0766	–
PLKWCIPQWMCTEA [Phage-2544]	0.0825	1.15	–	–	–
FHEWCIPSWMCFKE [Phage-2550]	0.0984	1.14	–	–	–
